Measured values reported in paper PMC4119840 (Biochimie, 2014).
Several values for one entry are separate records, joined by “and”; a condition that tells them apart may be missing. Equal entries are not always repeated.

Molecular target: the molecule itself
Assay: SEC

B1: mouse Serum amyloid A 1.1 (SAA1.1), lipid-free (natural protein)
chain: GFFSFIGEAFQGAGDMWRAYTDMKEAGWKDGDKYFHARGNYDAAQRGPGGVWAAEKISDARESFQEFFGRGHEDTMADQEANRHGRSGKDPNYYRPPGLPAKY
stoichiometry N: 12 and 4
